According to article PMC8099640, “Collagen IV^α345 dysfunction in glomerular basement membrane diseases. III. A functional framework for α345 hexamer assembly” (The Journal of Biological Chemistry, 2021):

Key:
[1] = biological target: recombinant α345 miniprotomer (human) (UniProt Q01955); test: atomic force microscopy; miniprotomer 1 to 2 μg/ml deposited on mica from buffer with chloride, imaged dry, AC tapping mode in air
[2] = biological target: the molecule itself; test: SEC; NC1 monomers alone or in equimolar mixture, 2 mg/ml in 25-mM Tris acetic acid buffer pH 7.5, NaCl added (150 mM), 24 h at 37 °C; Superdex 200 Increase 10/300GL in TBS; hexamer peak blotted with α3, α4 and α5 NC1-specific mAbs

recombinant α345 miniprotomer, sequence (Q01955 29-1670): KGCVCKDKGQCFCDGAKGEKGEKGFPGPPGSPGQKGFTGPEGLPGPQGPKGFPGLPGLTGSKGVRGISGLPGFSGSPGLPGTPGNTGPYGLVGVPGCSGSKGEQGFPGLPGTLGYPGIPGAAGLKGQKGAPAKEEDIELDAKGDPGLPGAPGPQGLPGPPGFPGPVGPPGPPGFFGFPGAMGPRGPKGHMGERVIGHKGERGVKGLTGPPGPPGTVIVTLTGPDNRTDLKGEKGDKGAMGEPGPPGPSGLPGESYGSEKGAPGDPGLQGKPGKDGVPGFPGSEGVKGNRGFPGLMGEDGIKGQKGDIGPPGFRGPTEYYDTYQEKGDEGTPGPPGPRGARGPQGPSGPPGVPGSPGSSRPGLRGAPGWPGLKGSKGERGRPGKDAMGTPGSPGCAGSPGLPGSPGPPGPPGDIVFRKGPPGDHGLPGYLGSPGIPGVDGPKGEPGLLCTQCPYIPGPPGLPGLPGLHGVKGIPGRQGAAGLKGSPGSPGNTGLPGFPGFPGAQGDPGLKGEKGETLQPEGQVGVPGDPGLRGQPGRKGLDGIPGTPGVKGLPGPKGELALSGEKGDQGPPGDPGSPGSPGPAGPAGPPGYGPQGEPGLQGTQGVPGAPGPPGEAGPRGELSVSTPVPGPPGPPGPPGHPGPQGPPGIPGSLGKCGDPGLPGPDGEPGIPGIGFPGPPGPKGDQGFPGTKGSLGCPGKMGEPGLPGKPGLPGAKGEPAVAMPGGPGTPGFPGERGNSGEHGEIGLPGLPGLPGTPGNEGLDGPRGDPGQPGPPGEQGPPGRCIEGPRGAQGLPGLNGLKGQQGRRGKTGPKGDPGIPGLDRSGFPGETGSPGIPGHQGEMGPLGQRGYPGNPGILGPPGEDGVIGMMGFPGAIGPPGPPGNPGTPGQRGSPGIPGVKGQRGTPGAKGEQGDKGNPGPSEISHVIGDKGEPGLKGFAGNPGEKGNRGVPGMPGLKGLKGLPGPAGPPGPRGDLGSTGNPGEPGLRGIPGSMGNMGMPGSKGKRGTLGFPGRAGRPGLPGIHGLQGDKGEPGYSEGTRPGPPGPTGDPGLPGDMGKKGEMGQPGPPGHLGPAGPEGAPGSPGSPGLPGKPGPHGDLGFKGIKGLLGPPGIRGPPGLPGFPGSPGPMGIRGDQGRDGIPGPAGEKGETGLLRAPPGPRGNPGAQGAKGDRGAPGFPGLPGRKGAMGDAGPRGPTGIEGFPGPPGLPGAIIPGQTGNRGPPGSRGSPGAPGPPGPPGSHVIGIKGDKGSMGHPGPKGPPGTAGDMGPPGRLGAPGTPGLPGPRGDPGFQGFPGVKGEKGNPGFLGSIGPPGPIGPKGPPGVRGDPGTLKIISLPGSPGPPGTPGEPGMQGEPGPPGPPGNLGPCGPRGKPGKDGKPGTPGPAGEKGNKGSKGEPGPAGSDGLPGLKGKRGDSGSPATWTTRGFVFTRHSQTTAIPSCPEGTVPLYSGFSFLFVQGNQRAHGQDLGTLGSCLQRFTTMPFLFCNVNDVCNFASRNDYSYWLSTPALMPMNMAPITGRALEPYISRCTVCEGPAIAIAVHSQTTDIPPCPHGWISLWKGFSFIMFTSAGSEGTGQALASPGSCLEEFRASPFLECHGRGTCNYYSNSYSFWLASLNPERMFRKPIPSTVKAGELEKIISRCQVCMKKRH
recombinant α345 miniprotomer, sequence (P53420 39-1690): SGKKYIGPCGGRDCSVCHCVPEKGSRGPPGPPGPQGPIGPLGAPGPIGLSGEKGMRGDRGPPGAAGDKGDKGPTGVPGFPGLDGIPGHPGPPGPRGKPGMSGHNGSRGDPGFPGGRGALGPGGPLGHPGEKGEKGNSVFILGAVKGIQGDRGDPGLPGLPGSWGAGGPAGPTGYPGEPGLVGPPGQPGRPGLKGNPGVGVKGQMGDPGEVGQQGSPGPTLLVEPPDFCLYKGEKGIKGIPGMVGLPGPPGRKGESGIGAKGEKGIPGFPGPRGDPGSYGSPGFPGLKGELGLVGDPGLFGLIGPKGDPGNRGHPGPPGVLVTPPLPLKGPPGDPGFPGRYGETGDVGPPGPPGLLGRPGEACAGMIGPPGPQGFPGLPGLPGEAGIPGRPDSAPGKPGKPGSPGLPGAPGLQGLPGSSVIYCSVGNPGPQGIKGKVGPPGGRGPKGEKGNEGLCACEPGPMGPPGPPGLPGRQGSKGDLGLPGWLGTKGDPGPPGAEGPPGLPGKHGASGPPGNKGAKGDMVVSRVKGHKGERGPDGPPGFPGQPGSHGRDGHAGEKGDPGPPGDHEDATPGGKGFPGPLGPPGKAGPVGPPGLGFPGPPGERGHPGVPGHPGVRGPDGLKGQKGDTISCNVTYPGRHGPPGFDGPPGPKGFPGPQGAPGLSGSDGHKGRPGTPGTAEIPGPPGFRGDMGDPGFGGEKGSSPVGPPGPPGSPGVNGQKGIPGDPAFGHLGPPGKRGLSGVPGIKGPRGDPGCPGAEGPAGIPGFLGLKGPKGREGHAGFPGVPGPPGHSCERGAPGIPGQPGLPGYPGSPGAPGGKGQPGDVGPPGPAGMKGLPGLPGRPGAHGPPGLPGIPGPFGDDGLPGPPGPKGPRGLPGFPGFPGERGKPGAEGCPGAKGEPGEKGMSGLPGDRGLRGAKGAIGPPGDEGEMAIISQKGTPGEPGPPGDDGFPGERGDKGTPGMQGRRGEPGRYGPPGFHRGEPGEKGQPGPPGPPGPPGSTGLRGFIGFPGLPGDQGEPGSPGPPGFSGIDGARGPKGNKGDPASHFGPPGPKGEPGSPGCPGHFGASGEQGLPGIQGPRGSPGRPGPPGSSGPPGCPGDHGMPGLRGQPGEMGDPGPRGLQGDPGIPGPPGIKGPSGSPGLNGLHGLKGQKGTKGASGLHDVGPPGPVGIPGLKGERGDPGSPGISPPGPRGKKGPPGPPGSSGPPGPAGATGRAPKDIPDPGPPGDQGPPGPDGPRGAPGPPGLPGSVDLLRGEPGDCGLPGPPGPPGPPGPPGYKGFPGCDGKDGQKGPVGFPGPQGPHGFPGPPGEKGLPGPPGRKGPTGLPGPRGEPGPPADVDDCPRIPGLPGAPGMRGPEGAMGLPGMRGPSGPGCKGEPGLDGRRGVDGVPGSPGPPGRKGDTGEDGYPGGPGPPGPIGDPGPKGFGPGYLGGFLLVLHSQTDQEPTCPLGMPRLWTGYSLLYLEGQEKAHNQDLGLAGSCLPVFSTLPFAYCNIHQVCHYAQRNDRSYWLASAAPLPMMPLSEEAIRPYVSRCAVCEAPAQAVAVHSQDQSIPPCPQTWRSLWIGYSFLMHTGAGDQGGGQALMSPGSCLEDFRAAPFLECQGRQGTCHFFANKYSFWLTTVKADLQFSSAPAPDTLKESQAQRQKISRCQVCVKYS
recombinant α345 miniprotomer, sequence (P29400 27-1685): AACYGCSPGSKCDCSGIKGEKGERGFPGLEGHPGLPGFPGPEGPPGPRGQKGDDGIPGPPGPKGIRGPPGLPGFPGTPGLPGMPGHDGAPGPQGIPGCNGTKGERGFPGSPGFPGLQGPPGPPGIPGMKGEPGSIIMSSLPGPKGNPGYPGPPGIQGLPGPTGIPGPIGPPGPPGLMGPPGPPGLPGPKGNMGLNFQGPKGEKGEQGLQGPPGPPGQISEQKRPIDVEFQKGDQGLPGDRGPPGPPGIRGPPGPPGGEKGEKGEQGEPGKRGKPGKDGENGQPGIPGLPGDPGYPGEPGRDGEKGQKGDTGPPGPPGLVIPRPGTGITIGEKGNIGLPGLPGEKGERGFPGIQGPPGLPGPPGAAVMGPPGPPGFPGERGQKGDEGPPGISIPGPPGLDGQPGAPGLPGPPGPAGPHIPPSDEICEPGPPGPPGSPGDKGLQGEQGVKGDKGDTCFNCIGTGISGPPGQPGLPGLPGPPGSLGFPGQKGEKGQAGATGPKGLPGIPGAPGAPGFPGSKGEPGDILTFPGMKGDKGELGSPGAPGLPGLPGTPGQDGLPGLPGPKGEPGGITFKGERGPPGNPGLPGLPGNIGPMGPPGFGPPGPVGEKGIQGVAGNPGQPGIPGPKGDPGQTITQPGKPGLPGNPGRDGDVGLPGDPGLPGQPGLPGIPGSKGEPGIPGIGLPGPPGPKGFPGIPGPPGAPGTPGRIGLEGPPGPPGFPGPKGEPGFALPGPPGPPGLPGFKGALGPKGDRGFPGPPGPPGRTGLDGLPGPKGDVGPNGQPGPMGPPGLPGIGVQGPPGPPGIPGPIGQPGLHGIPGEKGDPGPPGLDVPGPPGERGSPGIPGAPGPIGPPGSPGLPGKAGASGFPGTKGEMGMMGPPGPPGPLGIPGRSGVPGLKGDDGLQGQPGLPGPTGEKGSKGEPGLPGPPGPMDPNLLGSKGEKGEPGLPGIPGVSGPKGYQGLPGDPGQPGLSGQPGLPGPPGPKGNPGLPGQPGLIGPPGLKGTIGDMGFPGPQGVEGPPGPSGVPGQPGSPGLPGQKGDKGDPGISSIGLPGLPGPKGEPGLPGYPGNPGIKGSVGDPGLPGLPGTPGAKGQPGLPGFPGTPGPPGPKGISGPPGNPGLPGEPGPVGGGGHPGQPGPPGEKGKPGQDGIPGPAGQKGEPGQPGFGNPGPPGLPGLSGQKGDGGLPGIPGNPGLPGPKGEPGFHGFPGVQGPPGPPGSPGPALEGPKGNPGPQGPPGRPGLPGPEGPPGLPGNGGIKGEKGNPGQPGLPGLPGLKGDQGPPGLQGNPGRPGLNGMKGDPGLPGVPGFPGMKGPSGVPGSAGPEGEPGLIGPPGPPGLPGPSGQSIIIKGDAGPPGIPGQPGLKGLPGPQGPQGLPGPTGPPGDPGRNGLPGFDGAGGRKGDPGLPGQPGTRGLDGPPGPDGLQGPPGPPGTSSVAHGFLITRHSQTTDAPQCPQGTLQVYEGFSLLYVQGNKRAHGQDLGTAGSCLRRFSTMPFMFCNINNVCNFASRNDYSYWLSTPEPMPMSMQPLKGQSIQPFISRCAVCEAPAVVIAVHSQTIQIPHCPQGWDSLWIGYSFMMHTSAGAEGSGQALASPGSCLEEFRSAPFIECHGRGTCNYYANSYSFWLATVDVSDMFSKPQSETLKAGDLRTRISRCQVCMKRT

Row | stoichiometry N [1] | Molecule | stoichiometry N [2]
1 | 2 | recombinant α345 miniprotomer (from UniProt Q01955 29-1670; P53420 39-1690; P29400 27-1685) (complex) | –
2 | – | recombinant human collagen IV α5 NC1 monomer (domain or fragment, UniProt P29400 1461-1685, looked up, collagen IV α5 chain, NC1 domain, human; amplified by PCR from a human kidney cDNA library; Secreted by means of the BM-40 signal peptide of the vector (derivative of pRc-CMV)) GFLITRHSQTTDAPQCPQGTLQVYEGFSLLYVQGNKRAHGQDLGTAGSCLRRFSTMPFMFCNINNVCNFASRNDYSYWLSTPEPMPMSMQPLKGQSIQPFISRCAVCEAPAVVIAVHSQTIQIPHCPQGWDSLWIGYSFMMHTSAGAEGSGQALASPGSCLEEFRSAPFIECHGRGTCNYYANSYSFWLATVDVSDMFSKPQSETLKAGDLRTRISRCQVCMKRT | 6
